The source of these data is PMC5606208 (Nature, 2017).

Data set [1] deals with the molecule itself. Nature of the data set: AUC.
Data set [2] deals with the molecule itself. Nature of the data set: SEC-MALS.

B1: PhosNH-α/βchimera (N-terminus and Hinge from HP1α with the Chromodomain, Chromoshadow domain and CTE from HP1β, phosphorylated) (other, human)
chain: GKKTKRTADSSSSEDEEEYVVEKVLDRRVVKGKVEYLLKWKGFSDEDNTWEPEENLDCPDLISEFMKKYKKMKEGENNKPREKSESNKRKSNFSNSADDIKSKKKREQSNDIARGFARGLEPERIIGATDSSGELMFLMKWKNSDEADLVPAKEANVKCPQVVISFYEERLTWHSYPSEDDDKKDDKN
modifications: phosphorylated NTE (fully phosphorylated, sites not given)
Regarding B1, in data set [1], the binding result is given as “binds”.

B2: nPhos-HP1α (HP1α S92A, S95A, S97A co-expressed with CKII, phosphorylated only in the N-terminal extension) (natural protein, human, UniProt P45973 1-191, looked up)
chain: MGKKTKRTADSSSSEDEEEYVVEKVLDRRVVKGQVEYLLKWKGFSEEHNTWEPEKNLDCPELISEFMKKYKKMKEGENNKPREKSESNKRKANFANAADDIKSKKKREQSNDIARGFERGLEPEKIIGATDSCGDLMFLMKWKDTDEADLVLAKEANVKCPQIVIAFYEERLTWHAYPEDAENKEKETAKS
modifications: phosphorylated at Ser11, Ser12, Ser13, Ser14 (NTE); 8 phosphates per dimer by native MS
Take B2: the “stoichiometry N” value in data set [2] is 2.

As usually defined, the stoichiometry N is a count of units in the complex or per binding partner.
